In patent US20220118080A1 (MAYO FOUNDATION FOR MEDICAL EDUCATION AND RESEARCH, published 2022):
Read-outs that look alike come from different tables or passages of the source.

B2: recombinant soluble MeV-H Δ8 (other)
chain: RLHRAAIYTAEIHKSLSTNLDVTNSIEHQVKDVLTPLFKIIGDEVGLRTPQRFTDLVKFISDKIKFLNPDREYDFRDLTWCINPPERIKLNYDQYCADVAAEELMNALVNSTLLETRTTNQFLAVSKGNCPGPTTIRGQFSNMSLSLLDLYLSRGYNVSSIVTMTSQGMYGGTYLVGKPDLNSKGSELSQPSMYRVFEVGVIRNPGLGAPVFHMTNYFEQPISKDLSNCMVALGELKLAALCHRGDSITIPCRGSGKGVSFQLVKLGVWKSPTDMHSWVPLSTDDPVIDRLYLSSHRGVITDNQANWAVPTTRTDDKLQKETCFQQACKGKIQALCENLEWAPLKDSRIPSYGVLSVNLSLAAEPKIKIASGFGPLITHGSGMDLYKSNHNNVYWLTIPPMKNLALGVINTLKWIPRLKVSPYLFTVPIEEADEDCRAPTYLPAEVTGDVKLSSNLVILPGQDLQYVLATYDTSGVEHAVVYYVYSPGGSFSYVYPFRLPIKGTPIELQVECFTWAQRLWCRHFCVLADSESGGHLTHSGMVGMEVSCTVNREDEANRR
B4: CD46-Fc (Fc fusion)
chain: CEEPPTFEAMELIGKPKPYYEIGERVDYKCKKGYFYIPPLATHTICDRNHTWLPVSDDACYRETCPYIRDPLNGQAVPANGTYEFGYQMHFICNEGYYLIGEEILYCELKGSVAIWSGKPPICEKVLCTPPPKIKNGKHTFSEVEVFEYLDAVTYSCDPAPGPDPFSLIGESTIYCGDNSVWSRAAPECKVVKCRFPVVENGKQISGFGKKFYYKATVMFECDKGFYLDGSDTIVCDSNSTWDPPVPKCLKVLPPSSTKPPALSHSVSTSSTTKSPASSASGPRPTYKPPVSNY
notes: range 35-328

How the values were obtained:
[1] = molecular target: recombinant soluble MeV-H A (vaccine strain) (measles virus)
[2] = molecular target: recombinant soluble MeV-H A (vaccine strain) (measles virus); assay: ELISA, receptor-Fc titrated on plastic-bound MeV-H; one-site fit, apparent Kd
[3] = molecular target: recombinant soluble MeV-H A (vaccine strain) (measles virus); assay: ELISA, receptor-Fc titrated on plastic-bound MeV-H; one-site fit
CD46-Fc = molecular target: B4; assay: ELISA, receptor-Fc titrated on plastic-bound MeV-H; one-site fit, apparent Kd (half-saturating concentration)
SLAM-Fc [4] = molecular target: T1, SLAM-Fc (UniProt Q13291 21-237); assay: ELISA, receptor-Fc on plastic-bound MeV-H
T1 sequence: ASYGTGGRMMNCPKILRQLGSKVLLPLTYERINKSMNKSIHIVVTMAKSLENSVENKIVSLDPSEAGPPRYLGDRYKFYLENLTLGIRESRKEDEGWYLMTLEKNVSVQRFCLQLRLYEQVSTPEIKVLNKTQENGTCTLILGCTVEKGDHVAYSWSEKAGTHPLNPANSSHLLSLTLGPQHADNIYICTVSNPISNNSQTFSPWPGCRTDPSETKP

SLAM-Fc [5] = molecular target: T1, SLAM-Fc; assay: ELISA, receptor-Fc titrated on plastic-bound MeV-H; one-site fit, apparent Kd
[6] = molecular target: B2; assay: ELISA, receptor-Fc titrated on plastic-bound MeV-H

For “CD46-Fc (from UniProt P15529 35-328) (Fc fusion)”, which Kd [1] is on record?
Its Kd is 819 µM.

For “nectin-4-Fc (from UniProt Q96NY8 32-349) (Fc fusion)”, which Bmax [1] is on record?
The Bmax was 1.56.

B1: SLAM-Fc (Fc fusion)
chain: ASYGTGGRMMNCPKILRQLGSKVLLPLTYERINKSMNKSIHIVVTMAKSLENSVENKIVSLDPSEAGPPRYLGDRYKFYLENLTLGIRESRKEDEGWYLMTLEKNVSVQRFCLQLRLYEQVSTPEIKVLNKTQENGTCTLILGCTVEKGDHVAYSWSEKAGTHPLNPANSSHLLSLTLGPQHADNIYICTVSNPISNNSQTFSPWPGCRTDPSETKP
Which results are given for B1?
Kd [2]: 2.68 µM; Bmax [3]: 2.09

What does the source list for B2?
Kd (CD46-Fc): 0.00019 µM; binding result (SLAM-Fc [4]): no binding

B3: recombinant soluble MeV-H H1 (other)
chain: RLHRAAIYTAEIHKSLSTNLDVTNSIEHQVKDVLTPLFKIIGDEVGLRTPQRFTDLVKFISDKIKFLNPDREYDFRDLTWCINPPERIKLNYDQYCADVAAEELMNALVNSTLLETRTTNQFLAVSKGNCSGPTTIRGQFSNMSLSLLDLYLSRGYNVSSIVTMTSQGMYGGTYLVEKPNLNSKGSELSQLSMYRVFEVGVIRNPGLGAPVFHMTNYFEQPISKDLSNCMVALGELKLAALCHGGDSITIPYQGSGKGVSFQLVKLGVWKSPTDMHSWVPLSTDDPVIDRLYLSSHRGVITDNQANWAVPTTRTDDKLRMETCFQQACKGKIQALCENLEWAPLKDSRIPSYGVLSVDLSLAAEPKIKIASGFGPLITHGSGMDLYKSNHNNVYWLTIPPMKNLALGVINTLEWIPRLKVSPNLFTVPIKEAGEDCHAPTYLPAEVDGDVKLSSNLVILPGQDLQYVLATYDTSRVEHAVVYYVYSPSRSFSYFYPFRLPIKGTPIELQVECFTWAQRLWCRHFCVLADSESGGHLTHSGMVGMEVSCTVNREDEANRR
B3 was tested. Which Kd (SLAM-Fc [5]) did it give?
The Kd was 10.4 µM.

With B4 as the molecule, how does the “fold better binding than MeV-H A and H1” value [6] read?
Its value is about 4000 fold.
